# Test results from paper PMC10397247.
# T1: 4H730-bH
# T1 chain: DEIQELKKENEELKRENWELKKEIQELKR
# T2: 4H349-bH
# T2 chain: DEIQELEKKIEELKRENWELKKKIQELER
# T3: 4H2859-bH
# T3 chain: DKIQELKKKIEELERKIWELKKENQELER
# T4: 4H56-bH
# T4 chain: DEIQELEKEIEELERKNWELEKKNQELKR
# T5: 4H264-bA
# T5 chain: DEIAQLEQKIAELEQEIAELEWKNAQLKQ
# T6: 4H3297-bH
# T6 chain: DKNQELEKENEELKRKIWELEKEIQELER
# T7: 4H264-bH
# T7 chain: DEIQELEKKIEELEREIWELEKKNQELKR
# T8: 4H932-bH
# T8 chain: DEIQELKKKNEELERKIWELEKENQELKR
# T9: 4H2931-bH
# T9 chain: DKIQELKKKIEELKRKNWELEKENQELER
# T10: 4H2760-bH
# T10 chain: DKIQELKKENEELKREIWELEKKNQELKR
# T11: 4H235-bH
# T11 chain: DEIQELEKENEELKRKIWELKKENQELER
# T12: 4H949-bH
# T12 chain: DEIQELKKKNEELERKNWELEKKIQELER
# T13: 4H2518-bH
# T13 chain: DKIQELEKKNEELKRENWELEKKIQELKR
# T14: 4H2253-bH
# T14 chain: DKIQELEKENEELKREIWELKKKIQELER
# T15: 4H3364-bH
# T15 chain: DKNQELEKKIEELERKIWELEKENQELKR
# T16: 4H2233-bH
# T16 chain: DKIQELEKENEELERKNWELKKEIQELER
# T17: 4H3041-bH
# T17 chain: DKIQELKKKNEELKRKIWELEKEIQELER
# T18: 4H796-bH
# T18 chain: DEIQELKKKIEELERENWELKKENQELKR
# T19: 4H3381-bH
# T19 chain: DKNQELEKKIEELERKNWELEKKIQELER
# T20: 4H2444-bH
# T20 chain: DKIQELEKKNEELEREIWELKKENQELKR
# T21: 4H2585-bH
# T21 chain: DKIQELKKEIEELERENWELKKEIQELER
# T22: 4H2162-bH
# T22 chain: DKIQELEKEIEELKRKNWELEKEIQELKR
# T23: 4H3185-bA
# T23 chain: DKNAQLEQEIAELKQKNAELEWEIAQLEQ
# T24: 4H918-bA
# T24 chain: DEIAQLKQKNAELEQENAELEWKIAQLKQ
# T25: 4H3189-bA
# T25 chain: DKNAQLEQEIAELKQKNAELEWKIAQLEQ
# T26: 4H883-bA
# T26 chain: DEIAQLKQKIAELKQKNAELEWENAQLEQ
# T27: 4H331-bA
# T27 chain: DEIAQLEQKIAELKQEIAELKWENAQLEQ
# T28: 4H2697-bA
# T28 chain: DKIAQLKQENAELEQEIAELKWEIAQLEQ
# T29: 4H2667-bA
# T29 chain: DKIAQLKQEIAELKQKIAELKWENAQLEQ
# T30: 4H1828-bA
# T30 chain: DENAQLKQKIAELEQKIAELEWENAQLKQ
# T31: 4H3427-bA
# T31 chain: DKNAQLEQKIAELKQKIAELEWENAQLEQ
# T32: 4H72-bA
# T32 chain: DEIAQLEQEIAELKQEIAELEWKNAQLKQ
# T33: 4H370-bA
# T33 chain: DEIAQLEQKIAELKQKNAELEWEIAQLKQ
# T34: 4H2729-bA
# T34 chain: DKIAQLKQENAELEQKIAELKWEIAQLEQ
# T35: 4H967-bA
# T35 chain: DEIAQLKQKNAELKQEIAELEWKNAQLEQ
# T36: 4H568-bA
# T36 chain: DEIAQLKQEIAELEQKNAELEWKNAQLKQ
# T37: 4H687-bA
# T37 chain: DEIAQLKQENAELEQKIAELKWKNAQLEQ
# T38: 4H3855-bA
# T38 chain: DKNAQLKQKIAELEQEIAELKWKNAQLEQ
# T39: 4H3112-bA
# T39 chain: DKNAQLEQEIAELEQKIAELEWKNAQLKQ
# T40: 4H2576-bA
# T40 chain: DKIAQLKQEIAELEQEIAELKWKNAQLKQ
# T41: 4H1446-bA
# T41 chain: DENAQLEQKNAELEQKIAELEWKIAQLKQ
# T42: 4H717-bA
# T42 chain: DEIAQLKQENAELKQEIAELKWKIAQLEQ
# T43: 4H462-bA
# T43 chain: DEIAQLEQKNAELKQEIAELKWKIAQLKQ
# T44: 4H3782-bA
# T44 chain: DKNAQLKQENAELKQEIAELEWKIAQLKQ
# T45: 4H454-bA
# T45 chain: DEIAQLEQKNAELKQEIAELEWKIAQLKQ
# T46: 4H3843-bA
# T46 chain: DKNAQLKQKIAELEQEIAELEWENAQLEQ
# T47: 4H3606-bA
# T47 chain: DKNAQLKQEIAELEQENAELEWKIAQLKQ
# T48: 4H953-bA
# T48 chain: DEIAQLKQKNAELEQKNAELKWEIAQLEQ
# T49: 4H338-bA
# T49 chain: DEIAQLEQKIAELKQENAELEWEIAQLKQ
# T50: 4H2442-bA
# T50 chain: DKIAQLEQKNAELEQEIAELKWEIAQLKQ
# T51: 4H3354-bA
# T51 chain: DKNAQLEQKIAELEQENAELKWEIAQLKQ
# T52: 4H797-bA
# T52 chain: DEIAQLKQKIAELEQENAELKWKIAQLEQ
# T53: 4H754-bA
# T53 chain: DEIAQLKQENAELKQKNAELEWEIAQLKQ
# T54: 4H607-bA
# T54 chain: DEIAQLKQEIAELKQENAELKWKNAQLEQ
# T55: 4H4001-bA
# T55 chain: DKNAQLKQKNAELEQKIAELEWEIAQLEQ
# T56: 4H2610-bA
# T56 chain: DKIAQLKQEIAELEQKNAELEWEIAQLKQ
# T57: 4H2618-bA
# T57 chain: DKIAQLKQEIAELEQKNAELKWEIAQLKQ
# T58: 4H908-bA
# T58 chain: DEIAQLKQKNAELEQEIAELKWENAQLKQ
# T59: 4H1845-bA
# T59 chain: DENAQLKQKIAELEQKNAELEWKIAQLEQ
# Experiments:
# Assay in all cases: two-hybrid library CCNG1;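 note: natural log of median RNA to DNA barcode read ratio; higher means stronger binding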
# [1] = molecular target: T1, 4H730-bH
# [2] = molecular target: T2, 4H349-bH
# [3] = molecular target: T3, 4H2859-bH
# [4] = molecular target: T4, 4H56-bH
# [5] = molecular target: T5, 4H264-bA
# [6] = molecular target: T6, 4H3297-bH
# [7] = molecular target: T7, 4H264-bH
# [8] = molecular target: T8, 4H932-bH
# [9] = molecular target: T9, 4H2931-bH
# [10] = molecular target: T10, 4H2760-bH
# [11] = molecular target: T11, 4H235-bH
# [12] = molecular target: T12, 4H949-bH
# [13] = molecular target: T13, 4H2518-bH
# [14] = molecular target: T14, 4H2253-bH
# [15] = molecular target: T15, 4H3364-bH
# [16] = molecular target: T16, 4H2233-bH
# [17] = molecular target: T17, 4H3041-bH
# [18] = molecular target: T18, 4H796-bH
# [19] = molecular target: T19, 4H3381-bH
# [20] = molecular target: T20, 4H2444-bH
# [21] = molecular target: T21, 4H2585-bH
# [22] = molecular target: T22, 4H2162-bH
# [23] = molecular target: T23, 4H3185-bA
# [24] = molecular target: T24, 4H918-bA
# [25] = molecular target: T25, 4H3189-bA
# [26] = molecular target: T26, 4H883-bA
# [27] = molecular target: T27, 4H331-bA
# [28] = molecular target: T28, 4H2697-bA
# [29] = molecular target: T29, 4H2667-bA
# [30] = molecular target: T30, 4H1828-bA
# [31] = molecular target: T31, 4H3427-bA
# [32] = molecular target: T32, 4H72-bA
# [33] = molecular target: T33, 4H370-bA
# [34] = molecular target: T34, 4H2729-bA
# [35] = molecular target: T35, 4H967-bA
# [36] = molecular target: T36, 4H568-bA
# [37] = molecular target: T37, 4H687-bA
# [38] = molecular target: T38, 4H3855-bA
# [39] = molecular target: T39, 4H3112-bA
# [40] = molecular target: T40, 4H2576-bA
# [41] = molecular target: T41, 4H1446-bA
# [42] = molecular target: T42, 4H717-bA
# [43] = molecular target: T43, 4H462-bA
# [44] = molecular target: T44, 4H3782-bA
# [45] = molecular target: T45, 4H454-bA
# [46] = molecular target: T46, 4H3843-bA
# [47] = molecular target: T47, 4H3606-bA
# [48] = molecular target: T48, 4H953-bA
# [49] = molecular target: T49, 4H338-bA
# [50] = molecular target: T50, 4H2442-bA
# [51] = molecular target: T51, 4H3354-bA
# [52] = molecular target: T52, 4H797-bA
# [53] = molecular target: T53, 4H754-bA
# [54] = molecular target: T54, 4H607-bA
# [55] = molecular target: T55, 4H4001-bA
# [56] = molecular target: T56, 4H2610-bA
# [57] = molecular target: T57, 4H2618-bA
# [58] = molecular target: T58, 4H908-bA
# [59] = molecular target: T59, 4H1845-bA
binder,measurement,setting,value
DKIQELEKEIEELKRKNWELEKEIQELKR [4H2162-bH],interaction score,[1],-1.99
same,interaction score,[2],0.54
same,interaction score,[3],0.783
same,interaction score,[4],0.668
same,interaction score,[5],0.1
same,interaction score,[6],0.0958
same,interaction score,[7],0.0138
same,interaction score,[8],-0.531
same,interaction score,[9],0.798
same,interaction score,[10],0.202
same,interaction score,[11],0.377
same,interaction score,[12],-1.64
same,interaction score,[13],1
same,interaction score,[14],-0.234
same,interaction score,[15],0.498
same,interaction score,[16],0.284
same,interaction score,[17],0.641
same,interaction score,[18],-0.188
same,interaction score,[19],0.0641
same,interaction score,[20],0.28
same,interaction score,[21],0.942
same,interaction score,[22],0.161
DENAQLEQKNAELEQKIAELEWKIAQLKQ [4H1446-bA],interaction score,[23],-0.0587
same,interaction score,[24],-0.0235
same,interaction score,[25],-0.621
same,interaction score,[26],0.0122
same,interaction score,[27],1.79
same,interaction score,[28],-0.0949
same,interaction score,[29],0.0853
same,interaction score,[30],-0.523
same,interaction score,[31],0.256
same,interaction score,[32],1.16
same,interaction score,[33],0.183
same,interaction score,[34],1.08
same,interaction score,[35],-0.635
same,interaction score,[36],-0.418
same,interaction score,[37],-0.607
same,interaction score,[38],0.209
same,interaction score,[39],0.505
same,interaction score,[40],1.12
same,interaction score,[41],0.569
same,interaction score,[42],-0.295
same,interaction score,[43],-0.194
same,interaction score,[44],0.586
same,interaction score,[45],-0.131
same,interaction score,[46],2.01
same,interaction score,[47],0.144
same,interaction score,[48],-0.416
same,interaction score,[49],-0.241
same,interaction score,[50],-1.04
same,interaction score,[51],-0.413
same,interaction score,[52],-1.42
same,interaction score,[53],-0.817
same,interaction score,[54],-0.535
same,interaction score,[55],1.86
same,interaction score,[56],-0.647
same,interaction score,[57],0.00602
same,interaction score,[58],-0.405
same,interaction score,[59],-0.389
